Laboratory results as given in article PMC13108567 (2026).

Columns and labels:
PD-1 biotinylated dimer = PD-1 biotinylated dimer (human, UniProt Q15116 25-288, biotin); experiment: BLI
[1] = target: human programmed cell death protein 1 on PD-1 hi transgenic Jurkat cells (human, UniProt Q15116 25-288); experiment: FACS
Sequence of human programmed cell death protein 1 on PD-1 hi transgenic Jurkat cells (Q15116 25-288): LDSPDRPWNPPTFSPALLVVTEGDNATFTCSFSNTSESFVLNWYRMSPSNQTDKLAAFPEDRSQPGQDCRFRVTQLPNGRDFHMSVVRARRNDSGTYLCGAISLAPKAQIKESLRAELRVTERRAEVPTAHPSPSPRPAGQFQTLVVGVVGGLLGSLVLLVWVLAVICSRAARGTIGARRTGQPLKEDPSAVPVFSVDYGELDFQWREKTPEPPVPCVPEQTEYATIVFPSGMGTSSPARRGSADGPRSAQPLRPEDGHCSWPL

Sequence of PD-1 biotinylated dimer (Q15116 25-170): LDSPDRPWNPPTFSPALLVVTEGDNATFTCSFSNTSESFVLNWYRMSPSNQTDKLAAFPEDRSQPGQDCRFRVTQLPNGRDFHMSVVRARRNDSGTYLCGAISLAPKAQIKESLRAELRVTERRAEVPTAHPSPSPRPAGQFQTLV

B1: Fab of anti-PD-1 clone 135c139d6 (Fab, V domains shown)
VH: EVQLVQSGAEVKKPGESLKISCKGSGYSFTNFYIHWVRQAPGQRLEWMGSIYPNYGDTAYNQKFKDRFVFSLDTSVSTAYLQISSLKAEDTAVYYCARGYSYAMDYWGQGTTVTVSS
VL: DIQMTQSPSSVSASVGDRVTITCSASQGISGDLNWYQQKPGKAPKLLIYHTSSLHSGVPSRFSGSGSGTDFTLTISSLQPEDFATYYCQYYSKDLLTFGGGTKLEIK
Which results are given for B1?
Kd (PD-1 biotinylated dimer): 16 nM; EC50 [1]: 42 nM

B2: scFv-His of anti-PD-1 clone 135c139d6 (scFv, V domains shown)
VH: B1 VH
VL: B1 VL
B2 was tested. Which Kd (PD-1 biotinylated dimer) did it give?
The Kd was 10 nM.

What about the EC50 [1] of the same binder?
The EC50 was 162 nM.
